One data set concerns tumours. The following applies: human, in vivo. Here is the method: The radiolabelling procedure used was as follows.
(§1) Pre-therapeutic positron emission tomography/computed tomography (PET/CT) imaging was carried out 1 hour and 3 hours post injection with the imaging agent. […] Patient 1 was then administered with the therapeutic agent. […] single-photon emission computed tomography (SPECT) imaging was then carried out 1.5 hours, 17 hours, 41 hours, 65 hours and 141 hours post injection with the therapeutic agent.
(§2) Patient 2 was then administered with the therapeutic agent. […] SPECT imaging was then carried out 4.5 hours, 20 hours, 45 hours, 67 hours and 141 hours post injection with the therapeutic agent.
(§3) PET/CT imaging was performed using a Siemens Biograph mCT Flow PET/CT. SPECT imaging was performed using a Siemens Intevo SPECT/CT.

A short description of another data set: clinical. The settings on record: for accumulation and retention in tumours (SPECT): up to 141 hours post injection. The method, then: A dosimetry study was carried out using Compound 3 to investigate the suitability of the compounds described herein for use in imaging and radiotherapy.
The radiolabelling procedure used was as follows. Compound 3 was dissolved in ultrapure water (2 μg/μl) and 1.5 mL of 0.4 M sodium acetate buffer at pH 4.8 (8 mg/mL). Gentisic acid was added and the mixture was transferred to a ^177Lu V-vial. The vial was heated for 25 minutes at 95° C.
as §1, §2, §3

The target of another data set is cMet receptor (Homo sapiens, UniProt P08581). The data set can be described thus: Competition binding assay by fluorescence polarisation (FP). The following applies: mean; competition FP vs Cy5-labelled probe 20 nM, cMet receptor 50 nM, PBS pH 7.4 with 0.01% Tween 20. Here is the method: The half maximal inhibitory concentration (IC50) and dissociation constant (Kd) values were determined by competition fluorescence polarisation (FP) assay for the binding of cMet binding cyclic peptide (unlabelled), cMet-DOTA (Compound 3) and cMet-DOTAGA (Compound 4) to cMet receptor.
The principle of the fluorescence polarisation method can briefly be described as follows:
Monochromatic light passes through a […] polarizing filter and excites fluorescent molecules in the sample. Only those molecules that are oriented properly in the vertically polarized plane adsorb light, become excited, and subsequently emit light. The emitted light is measured in both horizontal and vertical planes. The anisotropy value (A), is the ratio between the light intensities following the equation:
A=(Intensity with horizontal polarizer—Intensity with vertical polarizer)/(Intensity with horizontal polarizer+2* Intensity with vertical polarizer).
The fluorescence anisotropy measurements were performed in a 96-well flat bottom plate using a Molecular Devices M5 multi-mode plate reader.
The assay buffer used was phosphate-buffered saline (PBS), pH 7.4 with 0.01% Tween 20. […]
IC50 values were determined by data fitting with the following equation using KaleidaGraph v4.03: […]
Kd values were determined by data fitting with the following equation using KaleidaGraph v4.03: […]

Setting [1] is: patient 1, 835 MBq, tumours (individual clusters).
The mark [2] stands for this setting: patient 2, 959 MBq, tumours (individual VOIs).

Molecules are shown by their SMILES. Several values for one entry are separate records, joined by “and”; a condition that tells them apart may be missing. Equal values may be shown once. Positions of bridges follow the written chain, without caps; N, C: chain ends. Residues, ends and D or L forms follow the SMILES beside them. *: point of attachment. DOTA = O=C(O)CN1CCN(CC(=O)O)CCN(CC(=O)*)CCN(CC(=O)O)CC1

Sequence of cMet receptor (P08581 25-932 limits assumed): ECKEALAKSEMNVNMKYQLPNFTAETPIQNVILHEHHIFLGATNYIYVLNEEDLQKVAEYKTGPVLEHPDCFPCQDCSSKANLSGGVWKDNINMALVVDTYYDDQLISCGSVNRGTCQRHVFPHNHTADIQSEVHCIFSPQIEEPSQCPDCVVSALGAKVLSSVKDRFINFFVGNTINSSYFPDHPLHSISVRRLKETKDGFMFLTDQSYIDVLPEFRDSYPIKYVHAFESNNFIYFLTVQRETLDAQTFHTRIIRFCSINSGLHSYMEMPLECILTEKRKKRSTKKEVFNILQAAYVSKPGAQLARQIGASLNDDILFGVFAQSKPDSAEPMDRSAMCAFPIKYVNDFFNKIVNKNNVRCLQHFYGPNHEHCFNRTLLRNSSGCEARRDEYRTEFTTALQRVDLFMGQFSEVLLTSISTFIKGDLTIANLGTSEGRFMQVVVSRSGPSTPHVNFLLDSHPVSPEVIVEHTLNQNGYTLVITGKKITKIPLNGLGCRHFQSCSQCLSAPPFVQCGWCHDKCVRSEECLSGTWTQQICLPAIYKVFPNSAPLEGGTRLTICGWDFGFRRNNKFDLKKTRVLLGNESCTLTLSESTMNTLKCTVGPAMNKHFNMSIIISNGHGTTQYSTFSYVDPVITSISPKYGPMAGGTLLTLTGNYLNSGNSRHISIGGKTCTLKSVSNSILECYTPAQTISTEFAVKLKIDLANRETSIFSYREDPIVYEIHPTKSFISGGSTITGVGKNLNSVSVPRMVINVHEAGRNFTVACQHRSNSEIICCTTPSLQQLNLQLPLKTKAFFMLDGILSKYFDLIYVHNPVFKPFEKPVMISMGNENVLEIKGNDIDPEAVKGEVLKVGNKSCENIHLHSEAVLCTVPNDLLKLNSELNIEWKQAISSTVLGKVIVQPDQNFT

For `CC(=O)N[C@@H](C)C(=O)NCC(=O)N[C@@H](CO)C(=O)N[C@H]1CSSC[C@@H](C(=O)N[C@@H](Cc2ccc(O)cc2)C(=O)N[C@@H](CCC(=O)O)C(=O)N[C@H](C(=O)N[C@@H](CCC(=O)O)C(=O)NCC(=O)N[C@H](C(=O)NCC(=O)NCC(=O)NCC(=O)N[C@@H](CCCCNC(=O)CN2CCN(CC(=O)O)CCN(CC(=O)O)CCN(CC(=O)O)CC2)C(N)=O)[C@@H](C)O)[C@@H](C)O)NC(=O)[C@H](Cc2c[nH]c3ccccc23)NC(=O)[C@@H]2CSSC[C@H](NC(=O)[C@H](Cc3ccc(O)cc3)NC1=O)C(=O)N[C@@H](CO)C(=O)NCC(=O)N1CCC[C@H]1C(=O)N1CCC[C@H]1C(=O)N[C@@H](CCCNC(=N)N)C(=O)N[C@@H](Cc1ccccc1)C(=O)N[C@@H](CCC(=O)O)C(=O)N2` [^68Ga-Compound 3, metal not drawn] (Ac-AGSCYCSGPPRFECWCYETEGTGGGK(DOTA)-NH2; disulfide 4-16, 6-14), the “accumulation in tumours (PET/CT)” value in the data set with tumours was “accumulation”.
As for `CC(=O)N[C@@H](C)C(=O)NCC(=O)N[C@@H](CO)C(=O)N[C@H]1CSSC[C@@H](C(=O)N[C@@H](Cc2ccc(O)cc2)C(=O)N[C@@H](CCC(=O)O)C(=O)N[C@H](C(=O)N[C@@H](CCC(=O)O)C(=O)NCC(=O)N[C@H](C(=O)NCC(=O)NCC(=O)NCC(=O)N[C@@H](CCCCNC(=O)CN2CCN(CC(=O)O)CCN(CC(=O)O)CCN(CC(=O)O)CC2)C(N)=O)[C@@H](C)O)[C@@H](C)O)NC(=O)[C@H](Cc2c[nH]c3ccccc23)NC(=O)[C@@H]2CSSC[C@H](NC(=O)[C@H](Cc3ccc(O)cc3)NC1=O)C(=O)N[C@@H](CO)C(=O)NCC(=O)N1CCC[C@H]1C(=O)N1CCC[C@H]1C(=O)N[C@@H](CCCNC(=N)N)C(=O)N[C@@H](Cc1ccccc1)C(=O)N[C@@H](CCC(=O)O)C(=O)N2` [^177Lu-Compound 3, metal not drawn] (Ac-AGSCYCSGPPRFECWCYETEGTGGGK(DOTA)-NH2; disulfide 4-16, 6-14), the half-life in “clinical” (human, kidney (left), Half-life, patient 2, 959 MBq) is 37 h; in “clinical” (human, kidney (left), Halflife, patient 1, 835 MBq), 21 h; in “clinical” (human, kidney (right), Half-life, patient 2, 959 MBq), 40 h; in “clinical” (human, kidney (right), Halflife, patient 1, 835 MBq), 21 h; in “clinical” (human, liver, Half-life, patient 2, 959 MBq), 77 h; in “clinical” (human, liver, Halflife, patient 1, 835 MBq), 73 h. Moreover, the half-life in the data set “clinical” (human, spleen, Half-life, patient 2, 959 MBq) was 58 h; in the data set “clinical” (human, spleen, Halflife, patient 1, 835 MBq), 39 h; in “clinical” (human, tumours (individual VOIs), Half-life, patient 2, 959 MBq) it was 28 h; in the data set “clinical” (human, tumours (individual clusters), Halflife, patient 1, 835 MBq) it was 42 h; in “clinical” (setting [2]), 27 h. For the same compound, the Dose in “clinical” (patient 1, 835 MBq, kidney (left)) is 1.04 Gy; in the data set “clinical” (patient 1, 835 MBq, kidney (right)) it was 1.02 Gy; in the data set “clinical” (setting [1]) it was 0.4 Gy and 0.43 Gy and 0.36 Gy; in the data set “clinical” (patient 2, 959 MBq, kidney (left), VOI 2466), 1.87 Gy; in “clinical” (patient 2, 959 MBq, kidney (left), VOI K-l-iso (Isocont.)), 1.73 Gy; in “clinical” (patient 2, 959 MBq, kidney (right), VOI 2548) it was 1.06 Gy. Besides, in “clinical” (setting [2]), the Dose was 0.08 Gy and 0.05 Gy and 0.04 Gy. Besides, the Halflife in “clinical” (setting [1]) is 48 h and 32 h and 59 h. Moreover, the “accumulation and retention in tumours (SPECT)” value in the data set “clinical” (patient 1, 835 MBq) is “accumulation and retention”; in the data set “clinical” (patient 2, 959 MBq) it was “accumulation and retention”.
On to `CC(=O)N[C@@H](C)C(=O)NCC(=O)N[C@@H](CO)C(=O)N[C@H]1CSSC[C@@H](C(=O)N[C@@H](Cc2ccc(O)cc2)C(=O)N[C@@H](CCC(=O)O)C(=O)N[C@H](C(=O)N[C@@H](CCC(=O)O)C(=O)NCC(=O)N[C@H](C(=O)NCC(=O)NCC(=O)NCC(=O)N[C@@H](CCCCN)C(N)=O)[C@@H](C)O)[C@@H](C)O)NC(=O)[C@H](Cc2c[nH]c3ccccc23)NC(=O)[C@@H]2CSSC[C@H](NC(=O)[C@H](Cc3ccc(O)cc3)NC1=O)C(=O)N[C@@H](CO)C(=O)NCC(=O)N1CCC[C@H]1C(=O)N1CCC[C@H]1C(=O)N[C@@H](CCCNC(=N)N)C(=O)N[C@@H](Cc1ccccc1)C(=O)N[C@@H](CCC(=O)O)C(=O)N2` [cMet peptide (unlabelled)] (HELM PEPTIDE1{[ac].A.G.S.C.Y.C.S.G.P.P.R.F.E.C.W.C.Y.E.T.E.G.T.G.G.G.K.[am]}$PEPTIDE1,PEPTIDE1,5:R3-17:R3|PEPTIDE1,PEPTIDE1,7:R3-15:R3$$$V2.0), for which, on cMet receptor, the IC50 was 320 ± 37 nM and the Kd is 6.9 ± 0.8 nM.
